From US20110045489A1, “Polymerases for Incorporating Modified Nucleotides” (NEW ENGLAND BIOLABS, INC., priority 2008, published 2011)
Residue numbers refer to the chain shown, from its start. In names and notes the source's numbering stands.

B1: 9° N D141A/E143A/L408P/Y409A/P410V/S411T: 9° N DNA polymerase mutant (protein, UniProt Q56366 1-775, looked up, variant D141A E143A L408P Y409A P410V S411T)
DNA polymerase: MILDTDYITENGKPVIRVFKKENGEFKIEYDRTFEPYFYALLKDDSAIEDVKKVTAKRHGTVVKVKRAEKVQKKFLGRPIEVWKLYFNHPQDVPAIRDRIRAHPAVVDIYEYDIPFAKRYLIDKGLIPMEGDEELTMLAFAIATLYHEGEEFGTGPILMISYADGSEARVITWKKIDLPYVDVVSTEKEMIKRFLRVVREKDPDVLITYNGDNFDFAYLKKRCEELGIKFTLGRDGSEPKIQRMGDRFAVEVKGRIHFDLYPVIRRTINLPTYTLEAVYEAVFGKPKEKVYAEEIAQAWESGEGLERVARYSMEDAKVTYELGREFFPMEAQLSRLIGQSLWDVSRSSTGNLVEWFLLRKAYKRNELAPNKPDERELARRRGGYAGGYVKEPERGLWDNIVYLDFRSPAVTIIITHNVSPDTLNREGCKEYDVAPEVGHKFCKDFPGFIPSLLGDLLEERQKIKRKMKATVDPLEKKLLDYRQRAIKILANSFYGYYGYAKARWYCKECAESVTAWGREYIEMVIRELEEKFGFKVLYADTDGLHATIPGADAETVKKKAKEFLKYINPKLPGLLELEYEGFYVRGFFVTKKKYAVIDEEGKITTRGLEIVRRDWSEIAKETQARVLEAILKHGDVEEAVRIVKEVTEKLSKYEVPPEKLVIHEQITRDLRDYKATGPHVAVAKRLAARGVKIRPGTVISYIVLKGSGRIGDRAIPADEFDPTKHRYDAEYYIENQVLPAVERILKAFGYRKEDLRYQKTKQVGLGAWLKVKGKK
B2: 9° N D141A/E143A/N491L/Y494S: 9° N DNA polymerase mutant (protein, UniProt Q56366 1-775, looked up, variant D141A E143A N491L Y494S)
DNA polymerase: B1 DNA polymerase with P408L, A409Y, V410P, T411S, N491L, Y494S
B3: Mma exo-: exonuclease minus DNA polymerase from Methanococcus maripaludis, SEQ ID NO:22 (protein, listed as Methanococcus maripaludis)
chain: MESLIDLDYNSDDLCIYLYLINSIIKEKDFKPYFYVNSTDKEQILEFLKDYEKKHKLDSEISKMIENIETVKKIVFDENYQEKELSKVTVKYPNNVKTVREILMEFERLYEYDIPFVRRYLIDNSVIPTSTWDFENNKKIDNKIPDFKTVSFAIAVYCNKEPNPKKDPIIMASFSSKDFNTVVSTKKFDHEKLEYVKDEKELIKRIIEILKEYDIIYTYNGDNFDFPYLKKRAESFGLELKLGKNDEKIKITKGGMNSKSYIPGRVHIDLYPIARRLLNLTKYRLENVTEALFDVKKVDVGHENIPKMWDNLDETLVEYSHQDAYYTQRIGEQFLPLEIMFSRVVNQSLYDINRMSSSQMVEYLLLKNSYKMGVIAPNRPSGKEYQKRIRSSYEGGYVKEPLKGIHEDIVSMDFLSLYPSIIMSHNLSPETIDCTCCSDEENGENEEILGHKFCKKSIGIIPKTLMDLINRRKKVKKVLREKAEKGEFDEEYQILDYEQRSIKVLANSHYGYLAFPMARWYSRDCAEITTHLGRQYIQKTIEEAENFGFKVIYADTDGFYSKWADDKEKLSKYELLEKTREFLKNINNTLPGEMELEFEGYFKRGIFVTKKKYALIDENEKITVKGLEVVRRDWSNVSKNTQKNVLNALLKEGSVENAKKVIQDTIKELKDGKVNNEDLLIHTQLTKRIEDYKTTAPHVEVAKKILKSGNRVNTGDVISYIITSGNKSISERAEILENAKNYDTNYYIENQILPPVIRLMEALGITKDELKDSKKQYTLHHFLK
modifications: (1)..(784) Exo-

Experiments:
3′-O-azidomethyl-dCTP = test: Titration assay, incorporation of 3′-O-azidomethyl-dCTP; type: biochemical; details: 10:1 or 1:1 3′-O-azidomethyl-dCTP:dNTP, 30 minutes; for 3′-O-azidomethyl-dCTP incorporation / termination of synthesis: 72° C. (9° N) or 37° C.
Description: Reactions were also performed in the absence of terminators to ensure that synthesis by each DNA polymerase was sufficient to extend primers without premature termination (“dNTP” lanes). Reactions with Therminator™ (NEB, Inc., Ipswich, Mass.) and 9° N exo-L408P/Y409A/S411T DNA polymerase (SEQ ID NO:6) were incubated at 72° C. for 30 minutes. Reactions with E. coli Polymerase I (pol I) (NEB, Inc., Ipswich, Mass.), Sequenase™, (USB, Inc., Cleveland, Ohio), Mma exo- and Mma exo-L417P/Y418A/S420T were incubated at 37° C. for 30 minutes. Each band corresponds to a DNA fragment terminated by a 3′-azido-dCMP. Using a titration assay as described in Gardner and Jack (2002), the relative 3′-azido-dCTP incorporation efficiency was determined for a series of DNA polymerases.
Incorporation of 3′-O-azidomethyl-dCTP by various DNA polymerases was measured using the titration assay as described in Example 1. For each reaction, a ratio of either 10:1 or 1:1 3′-O-azidomethyl-dCTP:dNTP was used to generate a termination pattern. Each band corresponded to a DNA fragment terminated by a 3′-azido-dCMP. A control reaction lacking terminator (dNTP) which yielded large extension products gave assurance that the DNA polymerase was active, and that termination products resulted from terminator incorporation rather than incomplete polymerization. Reactions with Therminator™ (NEB, Inc., Ipswich, Mass.) and 9° N exo-L408P/Y409A/S411T DNA polymerase were incubated at 72° C. for 30 minutes. Reactions with E. coli Polymerase I (pol I) (NEB, Inc., Ipswich, Mass.), Sequenase™ (USB, Inc., Cleveland, Ohio), Mma exo- and Mma exo-L417P/Y418A/S420T were conducted at 37° C. for 30 mintues. Therminator™ (NEB, Inc., Ipswich, Mass.) DNA polymerase was assayed with a 1:1 ratio of acyCTP as control.

modified nucleotide = test: Screen of DNA polymerase mutants for modified nucleotide incorporation; type: biochemical
Excerpt: In order to determine the extent of 3′-modified nucleotide incorporation by archaeon DNA polymerases, the titration assay described by Gardner and Jack (2002) was used. In this assay, the efficiency of incorporation of chain terminators was judged by the size of the reaction products in a polymerization reaction. As the efficiency of chain-terminator incorporation increased, the average reaction product size decreased because polymerization was more often halted by terminator addition. By comparing the amount of terminator required to give the same spectrum of reaction products, the relative efficiency of incorporation of the test compounds with the different polymerases was determined.
A complex library of 9° N DNA polymerase mutants was screened for enhanced incorporation of 3′-azido-ddCTP. Several classes of 9° N DNA polymerase mutants were identified with enhanced terminator incorporation. 9° N exo-L408S/Y409A/P410V (Therminator III™, NEB, Inc., Ipswich, Mass.) was purified and characterized in more detail. 9° N DNA polymerase single mutants P410V, L408S, and Y409A and double mutants L408S/P410V, L408S/Y409A, and Y409A/P410V were also purified for comparison. Purification and characterization of DNA polymerase mutants was as described in Gardner and Jack, Nucleic Acids Res. 27:2545-2553 (1999).
A library of 9° N DNA polymerase mutants was constructed by PCR amplification of the polymerase genes using gene-specific primers or codon optimization and gene synthesis Czar et al. Trends Biotechnol 27(2): 63-72 (2009)). The ability to incorporate 3′-modified nucleotide terminators was evaluated by the titration assay for chain terminator incorporation efficiency as described by Gardner and Jack (2002).
Furthermore, the same assay was used to measure 3′-amino-ddCTP incorporation by 9° N exo-L408S/Y409A/P410V (FIG. 3) and to measure rates of incorporation (FIG. 4). Examples of mutants that increased modified nucleotide incorporation by at least two-fold were: […]

| Molecule | 3′-O-azidomethyl-dCTP incorporation / termination of synthesis (3′-O-azidomethyl-dCTP) | increase of modified nucleotide incorporation (modified nucleotide) | relative 3′-O-azidomethyl-dCTP incorporation efficiency, rank order (3′-O-azidomethyl-dCTP; 72° C. or 37° C., FIG. 8) |
| --- | --- | --- | --- |
| E. coli DNA polymerase I (pol I): commercial E. coli DNA polymerase I (NEB, Inc.) [reference compound] | failed to terminate synthesis | – | – |
| B1 | – | at least two-fold | – |
| B2 | – | at least two-fold | – |
| B3 | failed to terminate synthesis | – | greater than Sequenase™ |
